Source: publication PMC9304679, “HDX-guided EPR spectroscopy to interrogate membrane protein dynamics” (STAR Protocols, 2022)

Target: the molecule itself
Test: SEC

B1: M tuberculosis MscL ion channel, wild type (natural protein)
chain: MLKGFKEFLARGNIVDLAVAVVIGTAFTALVTKFTDSIITPLINRIGVNAQSDVGILRIGIGGGQTIDLNVLLSAAINFFLIAFAVYFLVVLPYNTLRKKGEVEQPGDTQVVLLTEIRDLLAQTNGDSPGRHGGRGTPSPTDGPRASTESQ
notes: also called TbMscL; WT TbMscL
stoichiometry N: 5
